Laboratory results reported in ChEMBL document CHEMBL3860051, “Phosphorothioate analogs of P1,P3-di(nucleosid-5'-yl) triphosphates: Synthesis, assignment of the absolute configuration at P-atoms and P-stereodependent recognition by Fhit hydrolase” (Bioorg Med Chem, 2016).

How the values were obtained:
[1] = test system: Nc1ncnc2c1ncn2[C@@H]1O[C@H](CO[P@](=O)(S)OP(=O)(O)O[P@](=O)(S)OC[C@H]2O[C@@H](n3cnc4c(N)ncnc43)[C@H](O)[C@@H]2O)[C@@H](O)[C@H]1O; assay: (§1) Activity at human Fhit expressed in Escherichia coli BL21 assessed as enzyme Km by Michaelis-Menten equation
[2] = test system: Nc1ncnc2c1ncn2[C@@H]1O[C@H](CO[P@](=O)(S)OP(=O)(O)O[P@@](=O)(S)OC[C@H]2O[C@@H](n3cnc4c(N)ncnc43)[C@H](O)[C@@H]2O)[C@@H](O)[C@H]1O; assay: as §1
[3] = test system: Nc1ncnc2c1ncn2[C@@H]1O[C@H](CO[P@@](=O)(S)OP(=O)(O)O[P@](=O)(S)OC[C@H]2O[C@@H](n3cnc4c(N)ncnc43)[C@H](O)[C@@H]2O)[C@@H](O)[C@H]1O; assay: as §1
[4] = test system: Nc1ncnc2c1ncn2[C@@H]1O[C@H](CO[P@](=O)(S)OP(=O)(O)OP(=O)(O)OCc2cccc([N+](=O)[O-])c2)[C@@H](O)[C@H]1O; assay: (§2) Activity at human Fhit expressed in Escherichia coli SG100 assessed as ratio of enzyme Kcat to Km by Michaelis-Menten equation
[5] = test system: Nc1ncnc2c1ncn2[C@@H]1O[C@H](COP(=O)(O)OP(=O)(O)OP(=O)(O)OC[C@H]2O[C@@H](n3cnc4c(N)ncnc43)[C@H](O)[C@@H]2O)[C@@H](O)[C@H]1O; assay: as §2
[6] = test system: Nc1ncnc2c1ncn2[C@@H]1O[C@H](CO[P@](=O)(S)OP(=O)(O)OP(=O)(O)OCc2cccc([N+](=O)[O-])c2)[C@@H](O)[C@H]1O; assay: Activity at human Fhit expressed in Escherichia coli SG100 assessed as enzyme Vmax by Michaelis-Menten equation
[7] = test system: Nc1ncnc2c1ncn2[C@@H]1O[C@H](CO[P@](=O)(S)OP(=O)(O)O[P@](=O)(S)OC[C@H]2O[C@@H](n3cnc4c(N)ncnc43)[C@H](O)[C@@H]2O)[C@@H](O)[C@H]1O; assay: (§3) Activity at human Fhit expressed in Escherichia coli BL21 assessed as enzyme Kcat by Michaelis-Menten equation
[8] = test system: Nc1ncnc2c1ncn2[C@@H]1O[C@H](CO[P@](=O)(S)OP(=O)(O)O[P@@](=O)(S)OC[C@H]2O[C@@H](n3cnc4c(N)ncnc43)[C@H](O)[C@@H]2O)[C@@H](O)[C@H]1O; assay: as §3
[9] = test system: Nc1ncnc2c1ncn2[C@@H]1O[C@H](CO[P@@](=O)(S)OP(=O)(O)O[P@](=O)(S)OC[C@H]2O[C@@H](n3cnc4c(N)ncnc43)[C@H](O)[C@@H]2O)[C@@H](O)[C@H]1O; assay: as §3
[10] = test system: Nc1ncnc2c1ncn2[C@@H]1O[C@H](CO[P@](=O)(S)OP(=O)(O)O[P@](=O)(S)OC[C@H]2O[C@@H](n3cnc4c(N)ncnc43)[C@H](O)[C@@H]2O)[C@@H](O)[C@H]1O; assay: (§4) Activity at human Fhit expressed in Escherichia coli BL21 assessed as ratio of enzyme Kcat to Km by Michaelis-Menten equation
[11] = test system: Nc1ncnc2c1ncn2[C@@H]1O[C@H](CO[P@](=O)(S)OP(=O)(O)O[P@@](=O)(S)OC[C@H]2O[C@@H](n3cnc4c(N)ncnc43)[C@H](O)[C@@H]2O)[C@@H](O)[C@H]1O; assay: as §4
[12] = test system: Nc1ncnc2c1ncn2[C@@H]1O[C@H](CO[P@@](=O)(S)OP(=O)(O)O[P@](=O)(S)OC[C@H]2O[C@@H](n3cnc4c(N)ncnc43)[C@H](O)[C@@H]2O)[C@@H](O)[C@H]1O; assay: as §4
[13] = test system: Nc1ncnc2c1ncn2[C@@H]1O[C@H](CO[P@](=O)(S)OP(=O)(O)OP(=O)(O)OCc2cccc([N+](=O)[O-])c2)[C@@H](O)[C@H]1O; assay: (§5) Activity at human Fhit expressed in Escherichia coli SG100 assessed as enzyme Km by Michaelis-Menten equation
[14] = test system: Nc1ncnc2c1ncn2[C@@H]1O[C@H](COP(=O)(O)OP(=O)(O)OP(=O)(O)OC[C@H]2O[C@@H](n3cnc4c(N)ncnc43)[C@H](O)[C@@H]2O)[C@@H](O)[C@H]1O; assay: as §5
[15] = test system: Nc1ncnc2c1ncn2[C@@H]1O[C@H](COP(=O)(O)OP(=O)(O)OP(=O)(O)OC[C@H]2O[C@@H](n3cnc4c(N)ncnc43)[C@H](O)[C@@H]2O)[C@@H](O)[C@H]1O; assay: Activity at human Fhit expressed in Escherichia coli SG100 assessed as enzyme Kcat by Michaelis-Menten equation
[16] = target: Bis(5'-adenosyl)-triphosphatase (Homo sapiens) (UniProt P49789); assay: Activity at human Fhit expressed in Escherichia coli BL 21 assessed as enzyme Km by Michaelis-Menten equation relative to control
Chain of Bis(5'-adenosyl)-triphosphatase (Homo sapiens) (P49789 whole entry, looked up): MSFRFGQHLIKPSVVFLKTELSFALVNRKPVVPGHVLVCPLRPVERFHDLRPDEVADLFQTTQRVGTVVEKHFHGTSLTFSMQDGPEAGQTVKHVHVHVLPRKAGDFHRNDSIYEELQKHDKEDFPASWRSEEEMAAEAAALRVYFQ

Chain of Bis(5'-adenosyl)-triphosphatase (Homo sapiens), P49789 (P49789 whole entry): as the sequence (P49789 whole entry, looked up) above

## Bis(5'-adenosyl)-triphosphatase (Homo sapiens), P49789
[1]
  Km: 1.25 µM
[2]
  Km: 3.54 µM
[3]
  Km: 5.32 µM
[4]
  kcat/Km: 0.125 ×10⁶ /s/M
[5]
  kcat/Km: 3.8 ×10⁷ /M/s
[6]
  Vmax (10'-6mol/min/ug): 0.35
[7]
  kcat: 29.9 ×10⁻⁴ /s
[8]
  kcat: 4.8 ×10⁻⁴ /s
[9]
  kcat: 8.4 ×10⁻⁴ /s
[10]
  kcat/Km: 24 ×10² /M/s
[11]
  kcat/Km: 1.4 ×10² /M/s
[12]
  kcat/Km: 1.7 ×10² /M/s
[13]
  Km: 2.8 µM
[14]
  Km: 1.9 µM
[15]
  kcat: 73 s⁻¹

## Nc1ncnc2c1ncn2[C@@H]1O[C@H](CO[P@](=O)(S)OP(=O)(O)O[P@](=O)(S)OC[C@H]2O[C@@H](n3cnc4c(N)ncnc43)[C@H](O)[C@@H]2O)[C@@H](O)[C@H]1O
[16]
  fold change (FC): 2.8

## Nc1ncnc2c1ncn2[C@@H]1O[C@H](CO[P@@](=O)(S)OP(=O)(O)O[P@](=O)(S)OC[C@H]2O[C@@H](n3cnc4c(N)ncnc43)[C@H](O)[C@@H]2O)[C@@H](O)[C@H]1O
[16]
  fold change (FC): 2.8

## Nc1ncnc2c1ncn2[C@@H]1O[C@H](CO[P@](=O)(S)OP(=O)(O)O[P@@](=O)(S)OC[C@H]2O[C@@H](n3cnc4c(N)ncnc43)[C@H](O)[C@@H]2O)[C@@H](O)[C@H]1O
[16]
  fold change (FC): 2.8
